Data on two substances can be found in US10281476B2, “Methods to identify modulators of RyR calcium channels” (REGENTS OF THE UNIVERSITY OF MINNESOTA, priority 2013, dated 2019).

The subject of assay [1] is permeabilized cardiomyocytes. The experiment in a line: Ca2+ sparks and SR Ca2+ content in permeabilized myocytes. It is filed as cell-based, rat. The following applies: 5 μmol/L DPc10 with 1 μmol/L CaM or 100 nmol/L FKBP12.6. Here is the method: Myocytes were permeabilized with saponin (50μg/mL) for 60 seconds and placed in internal solution composed of EGTA 0.5 mmol/L; HEPES 10 mmol/L; Kaspartate 120 mmol/L; ATP 5 mmol/L; free MgCl2 1 mmol/L, reduced glutathione 10 mmol/L; and free [Ca2+] 50nmol/L (calculated using MaxChelator), creatine phosphokinase 5 U/mL, phosphocreatine 10 mmol/L, dextran 4% Fluo-4 0.025 mmol/L, pH 7.2. Ca2+sparks were recorded by a laser scanning confocal microscope (RADIANCE2000™ MP, Bio-Rad, UK) as previously described (Li et al., Circ Res, 2002; 90:309-316). Fluo-4 was excited at 488 nm and emission was recorded using 500/530 nm bandpass filter. To assess SR Ca2+content, caffeine (15 mmol/L) was rapidly perfused. Ca2+spark were analyzed as using SparkMaster (Picht et al., Am J Physiol Cell Physiol, 2007; 293:C1073-C1081).
Next, we asked whether RyR2 is activated by DPc10 and whether FKBP12.6 or CaM can prevent this. We assessed Ca^2+ sparks in permeabilized myocytes perfused with internal solution containing 50 nmol/L free Ca^2+ plus 1 μmol/L autocamtide-2-related inhibitory peptide (to inhibit CaMKII activity). Line-scan images were recorded after 3-hour incubations under control conditions and in the presence of 5 μmol/L DPc10, with or without 1 μmol/L CaM or 100 nmol/L FKBP12.6 (FIG. 14D).

The target in assay [2] is T1, RyR2 (Rattus norvegicus, UniProt B0LPN4). The arrangement: These fluorescent proteins were added to saponin-permeabilized myocytes with or without pre-equilibration with saturating DPc10 concentration; endogenous in cells; host or cells: saponin-permeabilized rat ventricular myocytes. The settings on record: cited from earlier work.
Target sequence in this assay (B0LPN4 whole entry): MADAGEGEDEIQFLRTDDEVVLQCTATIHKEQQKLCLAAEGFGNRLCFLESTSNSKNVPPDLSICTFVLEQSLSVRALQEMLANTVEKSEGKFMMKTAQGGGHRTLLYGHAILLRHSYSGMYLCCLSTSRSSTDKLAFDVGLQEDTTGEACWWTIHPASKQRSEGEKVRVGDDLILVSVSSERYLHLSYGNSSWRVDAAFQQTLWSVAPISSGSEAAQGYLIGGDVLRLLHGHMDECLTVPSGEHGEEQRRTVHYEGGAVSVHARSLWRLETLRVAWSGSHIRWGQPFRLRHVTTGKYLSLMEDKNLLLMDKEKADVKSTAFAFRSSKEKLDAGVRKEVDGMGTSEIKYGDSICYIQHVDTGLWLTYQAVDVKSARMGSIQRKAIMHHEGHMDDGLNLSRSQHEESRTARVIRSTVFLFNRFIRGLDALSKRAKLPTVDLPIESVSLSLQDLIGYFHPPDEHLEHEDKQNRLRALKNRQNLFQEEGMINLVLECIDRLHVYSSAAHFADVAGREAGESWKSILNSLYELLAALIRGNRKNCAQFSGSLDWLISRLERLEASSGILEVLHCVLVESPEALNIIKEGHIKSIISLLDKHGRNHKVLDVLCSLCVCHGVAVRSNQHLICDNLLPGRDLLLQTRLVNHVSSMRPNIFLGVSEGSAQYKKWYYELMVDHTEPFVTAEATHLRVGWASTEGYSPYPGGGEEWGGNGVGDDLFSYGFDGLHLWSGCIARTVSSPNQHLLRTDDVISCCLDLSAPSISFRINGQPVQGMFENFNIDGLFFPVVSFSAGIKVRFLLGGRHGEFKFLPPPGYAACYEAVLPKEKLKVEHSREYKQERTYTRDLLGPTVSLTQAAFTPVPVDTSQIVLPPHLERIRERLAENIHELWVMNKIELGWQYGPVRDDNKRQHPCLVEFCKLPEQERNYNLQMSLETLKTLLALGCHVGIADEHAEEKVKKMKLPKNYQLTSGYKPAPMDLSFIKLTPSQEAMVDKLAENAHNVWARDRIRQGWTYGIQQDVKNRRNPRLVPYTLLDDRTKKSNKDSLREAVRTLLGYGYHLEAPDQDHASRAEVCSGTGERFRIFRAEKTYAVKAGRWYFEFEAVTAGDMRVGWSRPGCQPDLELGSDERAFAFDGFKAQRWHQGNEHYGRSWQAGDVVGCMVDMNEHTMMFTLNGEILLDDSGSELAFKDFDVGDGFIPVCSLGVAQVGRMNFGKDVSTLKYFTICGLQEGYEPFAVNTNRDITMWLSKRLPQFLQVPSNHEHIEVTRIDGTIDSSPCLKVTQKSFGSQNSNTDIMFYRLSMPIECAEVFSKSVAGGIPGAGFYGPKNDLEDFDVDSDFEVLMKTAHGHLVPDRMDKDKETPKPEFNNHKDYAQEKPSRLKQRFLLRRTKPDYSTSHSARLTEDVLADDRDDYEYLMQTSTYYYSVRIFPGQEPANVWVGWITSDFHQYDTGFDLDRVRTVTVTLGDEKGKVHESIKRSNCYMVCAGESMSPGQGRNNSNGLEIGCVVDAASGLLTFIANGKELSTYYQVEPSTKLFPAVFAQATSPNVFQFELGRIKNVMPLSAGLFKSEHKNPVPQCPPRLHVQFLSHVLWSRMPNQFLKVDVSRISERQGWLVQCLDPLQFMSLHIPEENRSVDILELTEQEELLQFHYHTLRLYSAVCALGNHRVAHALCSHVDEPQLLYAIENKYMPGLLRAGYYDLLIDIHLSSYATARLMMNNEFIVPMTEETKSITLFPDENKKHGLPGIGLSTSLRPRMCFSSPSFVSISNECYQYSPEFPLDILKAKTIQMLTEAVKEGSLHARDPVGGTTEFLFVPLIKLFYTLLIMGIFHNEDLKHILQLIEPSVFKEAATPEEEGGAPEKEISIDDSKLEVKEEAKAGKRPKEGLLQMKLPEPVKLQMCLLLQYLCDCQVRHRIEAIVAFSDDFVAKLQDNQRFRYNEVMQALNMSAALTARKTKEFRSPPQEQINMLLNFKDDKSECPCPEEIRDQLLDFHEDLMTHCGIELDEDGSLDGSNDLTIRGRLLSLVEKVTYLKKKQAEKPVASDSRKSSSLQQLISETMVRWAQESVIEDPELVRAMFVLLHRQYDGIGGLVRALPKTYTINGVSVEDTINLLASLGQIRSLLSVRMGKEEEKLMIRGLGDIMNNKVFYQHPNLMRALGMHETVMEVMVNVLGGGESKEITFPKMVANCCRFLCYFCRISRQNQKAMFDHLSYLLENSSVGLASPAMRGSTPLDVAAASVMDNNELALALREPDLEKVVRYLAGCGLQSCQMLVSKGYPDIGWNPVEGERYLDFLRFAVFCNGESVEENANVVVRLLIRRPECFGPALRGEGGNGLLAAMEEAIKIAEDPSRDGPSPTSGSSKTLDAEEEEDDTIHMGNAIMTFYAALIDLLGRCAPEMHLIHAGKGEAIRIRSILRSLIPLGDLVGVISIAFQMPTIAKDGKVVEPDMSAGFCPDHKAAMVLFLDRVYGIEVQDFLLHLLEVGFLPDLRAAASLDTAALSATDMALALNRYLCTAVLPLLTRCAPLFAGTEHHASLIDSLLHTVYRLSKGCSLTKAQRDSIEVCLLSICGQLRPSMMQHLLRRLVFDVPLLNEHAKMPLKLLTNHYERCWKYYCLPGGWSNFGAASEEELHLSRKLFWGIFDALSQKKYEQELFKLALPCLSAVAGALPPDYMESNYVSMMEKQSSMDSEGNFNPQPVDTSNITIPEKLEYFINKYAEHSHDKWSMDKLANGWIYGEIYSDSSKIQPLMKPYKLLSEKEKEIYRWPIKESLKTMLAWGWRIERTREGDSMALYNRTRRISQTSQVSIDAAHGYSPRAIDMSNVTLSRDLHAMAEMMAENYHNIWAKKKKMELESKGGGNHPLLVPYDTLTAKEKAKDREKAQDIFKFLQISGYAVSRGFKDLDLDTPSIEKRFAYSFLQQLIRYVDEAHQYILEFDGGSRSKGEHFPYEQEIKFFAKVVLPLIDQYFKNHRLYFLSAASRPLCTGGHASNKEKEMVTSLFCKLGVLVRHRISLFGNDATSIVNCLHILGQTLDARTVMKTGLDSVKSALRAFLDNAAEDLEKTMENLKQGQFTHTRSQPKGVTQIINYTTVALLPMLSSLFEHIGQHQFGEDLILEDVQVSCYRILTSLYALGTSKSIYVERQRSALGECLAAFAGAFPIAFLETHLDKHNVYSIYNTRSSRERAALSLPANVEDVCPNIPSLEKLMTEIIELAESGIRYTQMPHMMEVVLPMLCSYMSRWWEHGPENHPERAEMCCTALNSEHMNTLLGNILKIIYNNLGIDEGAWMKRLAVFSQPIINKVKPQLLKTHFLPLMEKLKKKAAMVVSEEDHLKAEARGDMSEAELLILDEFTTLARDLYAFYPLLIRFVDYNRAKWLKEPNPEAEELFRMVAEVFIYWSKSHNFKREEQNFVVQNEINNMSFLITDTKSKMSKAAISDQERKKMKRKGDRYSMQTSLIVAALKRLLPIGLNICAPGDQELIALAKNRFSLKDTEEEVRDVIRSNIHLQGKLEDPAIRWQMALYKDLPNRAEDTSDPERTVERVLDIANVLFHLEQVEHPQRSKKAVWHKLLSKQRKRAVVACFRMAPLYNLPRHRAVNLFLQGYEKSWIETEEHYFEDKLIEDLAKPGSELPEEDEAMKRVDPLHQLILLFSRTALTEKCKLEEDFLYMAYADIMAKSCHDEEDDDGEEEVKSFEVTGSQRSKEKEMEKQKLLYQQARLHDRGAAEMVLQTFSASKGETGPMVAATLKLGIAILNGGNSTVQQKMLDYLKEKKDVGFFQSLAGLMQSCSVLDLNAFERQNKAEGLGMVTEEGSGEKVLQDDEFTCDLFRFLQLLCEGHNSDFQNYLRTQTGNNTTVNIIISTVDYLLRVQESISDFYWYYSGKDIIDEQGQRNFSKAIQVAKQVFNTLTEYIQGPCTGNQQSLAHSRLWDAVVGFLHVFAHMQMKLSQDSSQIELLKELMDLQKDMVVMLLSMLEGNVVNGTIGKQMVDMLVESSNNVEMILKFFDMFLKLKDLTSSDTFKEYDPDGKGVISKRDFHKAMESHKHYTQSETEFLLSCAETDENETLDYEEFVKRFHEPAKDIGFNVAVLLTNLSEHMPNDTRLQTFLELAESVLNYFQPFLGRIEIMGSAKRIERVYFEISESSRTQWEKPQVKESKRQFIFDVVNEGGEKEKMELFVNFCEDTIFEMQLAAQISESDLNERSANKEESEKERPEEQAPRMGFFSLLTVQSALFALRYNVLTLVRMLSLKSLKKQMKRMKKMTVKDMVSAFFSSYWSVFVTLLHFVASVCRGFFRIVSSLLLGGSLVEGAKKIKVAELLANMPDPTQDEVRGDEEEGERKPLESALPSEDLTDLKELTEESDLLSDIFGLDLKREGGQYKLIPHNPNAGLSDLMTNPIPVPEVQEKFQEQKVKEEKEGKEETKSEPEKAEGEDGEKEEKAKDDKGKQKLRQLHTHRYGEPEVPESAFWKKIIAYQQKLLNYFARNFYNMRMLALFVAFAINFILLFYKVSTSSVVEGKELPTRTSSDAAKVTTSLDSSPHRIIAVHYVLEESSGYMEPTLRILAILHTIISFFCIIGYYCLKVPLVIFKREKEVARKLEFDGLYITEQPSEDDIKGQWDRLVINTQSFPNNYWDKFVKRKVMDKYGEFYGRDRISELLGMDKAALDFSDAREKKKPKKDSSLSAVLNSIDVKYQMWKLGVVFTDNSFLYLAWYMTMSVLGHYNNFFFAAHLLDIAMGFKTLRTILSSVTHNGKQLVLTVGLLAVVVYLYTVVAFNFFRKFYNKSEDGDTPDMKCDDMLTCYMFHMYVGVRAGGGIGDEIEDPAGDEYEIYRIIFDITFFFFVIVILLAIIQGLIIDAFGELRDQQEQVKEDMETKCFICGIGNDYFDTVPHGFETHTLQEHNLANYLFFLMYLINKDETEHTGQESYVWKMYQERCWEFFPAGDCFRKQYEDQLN
Target sequence in this assay (P68106 with tags, fused parts or gaps T15C/C23A/C77I partner): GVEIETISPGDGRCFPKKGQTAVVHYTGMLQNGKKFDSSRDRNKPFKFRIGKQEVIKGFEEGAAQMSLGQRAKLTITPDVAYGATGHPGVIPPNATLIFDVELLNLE
The target of assay [3] is T1, RyR2. The experiment in a line: Fluorescent FKBP12.6 binding at the Z-line of permeabilized myocytes. The arrangement: These fluorescent proteins were added to saponin-permeabilized myocytes with or without pre-equilibration with saturating DPc10 concentration; endogenous in cells; host or cells: saponin-permeabilized rat ventricular myocytes. How it is done: These fluorescent proteins were added to saponin-permeabilized myocytes with or without pre-equilibration with saturating DPc10 concentration. […] We also did this with high [CaM] (500 nmol/L) that saturates RyR2 with CaM under control conditions (without DPc10; FIG. 17C). […] To test whether DPc10 and CaM bind at the same or nearby RyR2 sites, we measured FRET between CaM and DPc10.
FKBP12.6 can bind to and stabilize RyR2 channel gating, but details are controversial (Bers et al., Circ Res. 2012; 110:796-799). We measured the effect of H2O2 on FKBP12.6-RyR2 binding affinity in saponin-permeabilized myocytes using F-FKBP (Yang et al., Circ Res. 2014; 114:295-306; Cornea et al., Proc Natl Acad Sci USA. 2009; 106:6128-6133; Guo et al., Circ Res. 2010; 106:1743-1752; Guo et al., Biophys J. 2011; 101:2170-2177; Cornea et al., J Biol Chem. 2010; 285:19219-19226). […] We used 1 nmol/L F-FKBP (the its Kd) (Guo et al., Circ Res. 2010; 106:1743-1752), because at half-saturation it would be very sensitive to either an increase or decrease in RyR2 binding.
Target sequence in this assay (B0LPN4 whole entry): as the sequence (B0LPN4 whole entry) above
Target sequence in this assay (P68106 with tags, fused parts or gaps T15C/C23A/C77I partner): as the sequence (P68106 with tags, fused parts or gaps T15C/C23A/C77I partner) above

Assay [4] has as its target T1, RyR2. Briefly: F-DPc10 wash-in and washout kinetics at the myocyte Z-line. It is filed as binding. The arrangement: endogenous in cells; host or cells: saponin-permeabilized adult rat ventricular myocytes. How it is done: To characterize DPc10-binding kinetics at Z-lines, we performed F-DPc10 wash-in (500 nmol/L) and washout experiments in permeabilized myocytes (FIG. 10A). Association (τwash-in=79.0±3.2 minutes) and dissociation (τwashout=149.8±4.4 minutes) were very slow compared with similar FKBP12.6 measurements (Guo et al., Circ Res, 2010; 106:1743-1752). From the wash-in/washout measurements, we calculated the association and dissociation rates constants, kon and koff, respectively, according to the following equation: kwash-in=[F-DPc10]kon+koff where kwashout≈koff and k=1/τ (s^−1). Accordingly, kon=202±20 (L mol^−1 s^−1) and koff=0.11±0.01 (10^−3 s^−1). […] We repeated this kinetic analysis using FRET between FKBP12.6 and DPc10, thus assessing the RyR2-specific DPc10 binding (FIG. 11A AND 11B). […] Based on these kinetic and affinity analyses, we infer that most of the Z-line-specific DPc10 binding is to RyR2. This is also consistent with Bmax, which would imply ≈1 DPc10 per RyR2 monomer.
We were intrigued by the slow kwash-in and conducted measurements to further understand the basis of this slow association. We tested the hypothesis that at resting [Ca^2+]i, DPc10 access to its RyR2 binding site is sterically hindered. If the N-terminal and central domains are tightly zipped to each other, then this interaction may occlude the DPc10-binding site on the RyR2, thus limiting the kon for DPc10. Alternatively, a limiting factor may be the rate at which DPc10 adopts a conformation that can bind to RyR2. To discern between these mechanisms, we determined the effect of [F-DPc10] on τwash-in. If the small fraction of DPc10 in the right conformation limits binding rate, then τwash-in should be faster at higher [F-DPc10], according to Equation. […] Instead, a 10-fold increase in [F-DPc10] had no significant effect on the τwash-in, although it did increase Bmax (FIG. 10B). The same was seen when using FKBP12.6-DPc10 FRET to assess τwash-in with 0.5 vs 5 μmol/L HF647-DPc10 (FIG. 12A AND 12B).
In our working model, under resting conditions, the RyR2 closed state may be stabilized by the interaction between the N-terminal and central domain in the zipped state. We hypothesized that conditions that promote RyR2 opening might enhance the rate of unzipping and accelerate τwash-in for F-DPc10. To test this, we first monitored F-DPc10 wash-in at elevated Ca^2+ (500 nmol/L). However, the 13% faster mean τwash-in was not significant (FIG. 13A). […] Thus, we preincubated myocytes with ryanodine (100 μmol/L) plus caffeine ([…]), which are known to favor long RyR2 openings and were reported to cause RyR2 domain unzipping in HEK293 cells (Liu et al., J Cell Sci, 2010; 123: 1775-1784). Ryanodine+caffeine produced a 21% faster τwash-in (P=0.002; FIG. 13B). However, the most significant effect was seen after presaturating RyR2 with NF-DPc10 (and then NF-DPc10 washout with F-DPc10 present; FIG. 13A). […] Assuming that koff of NF-DPc10 is the same as for F-DPc10 and using Equation, the kon is increased by 3.2-fold by unzipping as a result of prebinding of NF-DPc10 to the RyR2. Our working hypothesis is that the RyR2 open state may increase the probability of an RyR2 shifting to the unzipped state and may allow faster F-DPc10 wash-in. It also seems that the RyR2 open state (favored by caffeine-ryanodine) differs from the unzipped state (bound with DPc10).
Both FKBP12.6 and CaM bind to the RyR2 and can reduce channel opening, which might alter DPc10 binding. […] Neither CaM nor FKBP12.6 pretreatment altered M-line F-DPc10 fluorescence (FIG. 15). […] We infer that CaM stabilizes the domain interaction between N-terminal and central domains in the zipped state and thereby may reduce DPc10 access to its binding site. To test for direct CaM-DPc10 interaction, we performed control FRET measurements between donor-labeled CaM and acceptor-labeled DPc10 in solution in the absence of RyR. The maximal FRET efficiency (<1%) ruled out direct CaM-DPc10 interaction. […]
Target sequence in this assay (B0LPN4 whole entry): as the sequence (B0LPN4 whole entry) above

For another assay, the target named is RyR1 (Homo sapiens, UniProt P21817). The settings on record: cited from earlier work.
The target of assay [5] is RyR2 (Homo sapiens, UniProt Q92736). The settings on record: cited from earlier work.
Setting [6] is: saturation of RyR2 with CaM 1 μmol/L or FKBP12.6 100 nmol/L, F-DPc10 5 μmol/L.

A word on the Kd: it is a measure of binding affinity in units of concentration. For the substance FKBP12.6: FK506-binding protein 12.6, the “effect on CaSpF activation by DPc10” value in assay [1] is “only slightly decreased”. For the same substance, the “Bmax of FKBP12.6, previous measurements” value in the assay with RyR2 [2] (cell average fluorescence) is given as “≈ 1 μmol/L”. Moreover, in the assay with RyR2 [2] (read-out: Kd of FKBP12.6 for RyR2), the Kd was roughly 1 nM. Also, the “Bmax for FKBP12.6, reanalyzed using FZ-FM” value with RyR2 [3] turned out to be 1.3 µmol/L. For the same substance, the “effect on F-DPc10 binding” value in the assay with RyR2 [4] (200-minute incubation with F-DPc10, pretreatment CaM 1 μmol/L or FKBP12.6 100 nmol/L) is reported as “did not alter”. Besides, in the assay with RyR2 [4] (setting [6]), the “effect on Bmax for F-DPc10” value is reported as “did not alter” and the “effect on τwash-in of F-DPc10” value is listed as “did not alter”.
Consider “FKBP12: FK506-binding protein isoform FKBP12”, for which the lower binding affinity with RyR1 is roughly 4 fold. Moreover, in the assay with RyR2 [5], the “lower affinity than FKBP12.6” value was roughly 100 fold.
